Patent US20170334973A1

Tests used:
[1] = biological target: SUDV GPddmuc (Sudan virus (SUDV)), Q66814; assay: ELISA; conditions: remark: other sources report otherwise
[2] = biological target: EBOV GPddmuc (Ebola virus (EBOV)), Q05320; assay: ELISA; conditions: remark: other sources report otherwise

| Binder | EC50 [1] [pM] | EC50 [2] [pM] |
| --- | --- | --- |
| FVM09 (antibody, V domains shown) VH: EVQLVQSGAEVKRPGESLTISCKTSGYSFTDSWVAWVRQMPGKGLEWLGSIYPGDSETKYNPSFQGHVTISADKSVTTTYLKWSSLKASDTATYYCVKGSETWGQGVLVTVSS VL: QLVLTQPASLSASPGASASLTCTFSGGINVAGYNILWYQQKAGSPPRYLLRYKSDSTKDQGSGVPSRFSGSKDASANTGILRISGLQSEDEADYYCAIGHSSGWIFGGGTRLTVL | 7730 | 7070 |
| FVM17 (antibody, V domains shown) VH: EVQLVQSGAEVKRPGESLTISCKTSGYSFTDSWISWVRQMPGKGLEWMGSIYPGDSDARYNPSFQGHVTISADKSISTTYLKWSSLKASDTATYYCVKGSETWGQGVLVTVSS VL: QAVVTQPASLSASPGTSASLTCTFSGGINVAGYNILWYQQKPGSPPRFLLRYKSDSDNVQGSGVPSHFSGSKDASANTGILRISGLQSEDEADYYCAIGHSSGWIFGGGTRLTVL | 113 | 96 |
| FVM20 (antibody, V domains shown) VH: EVQLVESGAEVKRPGESLTISCKTSGYSFTGSWISWVRQMPGKGLEWLGSIYPGDSETKYNPSFQGHVTISADKSVTTTYLKWSSLKASDTATYYCVKGSETWGQGVLVTVSS VL: NFMLTQSASLSASPGASASLTCTFSGGINVAGYHIFWYQQNPGSPPRYLLRYKSDSEKDQGSGVPSRFSGSKDASANTGILRISGLQSEDEADYYCAIGHSSGWIFGGGTRLTVL | 119 | 81 |
| FVM04 (antibody, V domains shown) VH: EVQLVQSGGGLVQPGGSMRLSCEASGLSLSDYFMHWVRQAQGKGLEWIGLIQTKAFTYKTEYPAAVKGRFTISRDDSKNTLYLQMSSLKPEDTALYYCIAVTPDFYYWGQGVLVTVSS VL: DVVMTQSPSFLSASVGDRVTITCRASQDITINLNWFQHKPGKAPKRLIYVASRLERGVPSRFSGSGSGTEFTLTISSLQPEDFATYYCQQYNNYPLTFGPGTKLDIKRTV | 164 | 149 |
